# Measured values published in patent US20040082080A1, “Method of measuring molecular interactions” (priority 2002, published 2004).
# Biological target: T1, low affinity nerve growth factor receptor, gp75 (Homo sapiens, UniProt P08138)
# T1 construct: were expressed endogenously in A875 cells; endogenous in cells; host or cells: A875 cells
# Experiment: FCS autocorrelation on A875 cells, gp75 receptor stoichiometry
# Assay type: cell-based
# Conditions: 180 nM NGF for 5 minutes
# Source text: Macromolecular stoichiometry, i.e., the quantitative proportions with which two macromolecules interact, of a target can be determined from autocorrelation data. Starting with Equation 4, macromolecular stoichiometry can be calculated if it is assumed that intersystem crossing and particle diffusion are independent sources of fluctuation. The first occurs in the microsecond (μs) time domain and results from intersystem crossing of fluorophores between the singlet and triplet states. The second occurs in the millisecond (ms) time domain, and results from the diffusion of particles into and out of the confocal volume. […]
# where F1N′P defines the total number of fast diffusing particles, i.e., uncomplexed fluorescently tagged probes, and F2N′P defines the total number of slow diffusing complexes formed. […] S is obtained with Equation 8 for each target concentration using the parameter values obtained by fitting to Equation 6 and the calibration factor determined with Equation 7
# The samples were analyzed using a fluorescence correlation spectroscopy instrument configured to distinct fluorescence emission at different wavelengths and a data processing program capable of autocorrelation, crosscorrelation, Fourier transform and Moment analyses. […]
# T1 sequence (P08138 29-427): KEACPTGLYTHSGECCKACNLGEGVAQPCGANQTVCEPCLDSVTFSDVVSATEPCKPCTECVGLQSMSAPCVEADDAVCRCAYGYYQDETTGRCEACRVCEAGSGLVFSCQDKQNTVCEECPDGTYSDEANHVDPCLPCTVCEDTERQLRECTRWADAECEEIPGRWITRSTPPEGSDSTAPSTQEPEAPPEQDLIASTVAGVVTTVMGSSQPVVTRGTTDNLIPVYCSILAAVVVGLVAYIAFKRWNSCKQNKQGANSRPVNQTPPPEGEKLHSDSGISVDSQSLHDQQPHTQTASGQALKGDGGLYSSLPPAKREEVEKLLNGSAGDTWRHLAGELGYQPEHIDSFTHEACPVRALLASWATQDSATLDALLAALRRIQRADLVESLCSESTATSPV
substance,measurement,value
nerve growth factor [NGF],stoichiometry calculation for gp75 (Equation 8),0.94
